{"source": "patent US20180186873A1", "about": "(CEPHALON, published 2018)", "binders": {"B1": {"name": "3A5.046 (antibody, human IgG4 S228P, lambda)", "heavy": "QVQLQESGPGLVKPSQTLSLTCTVSGGSISNGGYYWSWIRQHPGKGLEWIGYIYYSGSTYYNPSLKSRVTISVDTSKNQFSLKLSSVTAADTAVYYCASLGNWFDYWGQGTLVTVSSASTKGPSVFPLAPCSRSTSESTAALGCLVKDYFPEPVTVSWNSGALTSGVHTFPAVLQSSGLYSLSSVVTVPSSSLGTKTYTCNVDHKPSNTKVDKRVESKYGPPCPPCPAPEFLGGPSVFLFPPKPKDTLYITREPEVTCVVVDVSQEDPEVQFNWYVDGVEVHNAKTKPREEQFNSTYRVVSVLTVLHQDWLNGKEYKCKVSNKGLPSSIEKTISKAKGQPREPQVYTLPPSQEEMTKNQVSLTCLVKGFYPSDIAVEWESNGQPENNYKTTPPVLDSDGSFFLYSRLTVDKSRWQEGNVFSCSVMHEALHNHYTQKSLSLSLG", "light": "SYVLTQPPSVSVAPGQTARITCGGNNIGSKNVYWYQQKPGQAPVLVVHDDSDRPSGIPERFSGSNSGNTATLTISRVEVGDEADYSCQVWDSSSDHVVFGGGTKLTVLGQPKAAPSVTLFPPSSEELQANKATLVCLISDFYPGAVTVAWKADSSPVKAGVETTTPSKQSNNKYAASSYLSLTPEQWKSHRSYSCQVTHEGSTVEKTVAPTECS"}, "B2": {"name": "3A5.040 (antibody, human IgG4 S228P, lambda)", "heavy": "not shown", "light": "SYVLTQPPSVSVAPGQTARITCGGNNIGSKNVYWYQQKPGQAPVLVVHDDSDRPSGIPERFSGSNSGNTATLTISRVEVGDEADYSCQVWDSSSDHVVFGGGTKLTVLGQPKAAPSVTLFPPSSEELQANKATLVCLISDFYPGAVTVAWKADSSPVKAGVETTTPSKQSNNKYAASSYLSLTPEQWKSHRSYSCQVTHEGSTVEKTVAPTECS"}, "B3": {"name": "3A5.040 (antibody, human IgG4 S228P, lambda)", "heavy": "not shown", "light": "SYVLTQPPSVSVAPGQTARITCGGNNIGSKNVYWYQQKPGQAPVLVVHDDSDRPSGIPERFSGSNSGNTATLTISRVEVGDEADYSCQVWDSSSDHVVFGGGTKLTVLGQPKAAPSVTLFPPSSEELQANKATLVCLISDFYPGAVTVAWKADSSPVKAGVETTTPSKQSNNKYAASSYLSLTPEQWKSHRSYSCQVTHEGSTVEKTVAPTECS"}}, "key": {"[1]": {"target": "T1, recombinant human IL-5 (human, UniProt P05113 20-134)", "assay": "cell-based or functional assay"}, "[2]": {"target": "cynomolgus monkey IL-5 (cynomolgus monkey)", "assay": "cell-based or functional assay"}, "[3]": {"target": "T1, recombinant human IL-5", "assay": "SPR"}, "[4]": {"target": "T1, recombinant human IL-5", "assay": "SPR", "remark": "listed apart in the source"}, "[5]": {"target": "T2, recombinant human IL-5 (human, UniProt P05113 20-134)", "assay": "SPR Biacore, purified Ab on Protein A chip, IL-5 analyte, run 2.2"}, "[6]": {"target": "T2, recombinant human IL-5", "assay": "SPR Biacore, purified Ab on Protein A chip, IL-5 analyte, run 3.1"}, "[7]": {"target": "T2, recombinant human IL-5"}, "[8]": {"target": "T2, recombinant human IL-5", "remark": "listed apart in the source"}, "[9]": {"target": "T2, recombinant human IL-5", "remark": "listed apart in the source"}, "[10]": {"target": "T2, recombinant human IL-5", "remark": "listed apart in the source"}, "[11]": {"target": "T2, recombinant human IL-5", "remark": "listed apart in the source"}, "[12]": {"target": "T2, recombinant human IL-5", "remark": "listed apart in the source"}, "[13]": {"target": "T2, recombinant human IL-5", "remark": "listed apart in the source"}, "[14]": {"target": "T2, recombinant human IL-5", "remark": "listed apart in the source"}, "[15]": {"target": "T2, recombinant human IL-5", "remark": "listed apart in the source"}, "[16]": {"target": "T2, recombinant human IL-5", "remark": "listed apart in the source"}, "[17]": {"target": "T3, recombinant human IL-5 (human, UniProt P05113 20-134)", "assay": "Biacore SPR, purified Ab captured on Protein A, IL-5 injected, run 1.2"}, "[18]": {"target": "T3, recombinant human IL-5", "assay": "Biacore SPR, purified Ab captured on Protein A, IL-5 injected, run 2.1"}, "[19]": {"target": "T3, recombinant human IL-5", "remark": "listed apart in the source"}, "[20]": {"target": "T3, recombinant human IL-5", "remark": "listed apart in the source"}, "[21]": {"target": "T3, recombinant human IL-5", "remark": "listed apart in the source"}, "[22]": {"target": "T3, recombinant human IL-5", "remark": "listed apart in the source"}, "[23]": {"target": "T3, recombinant human IL-5", "remark": "listed apart in the source"}, "[24]": {"target": "T3, recombinant human IL-5", "remark": "listed apart in the source"}, "[25]": {"target": "T3, recombinant human IL-5", "remark": "listed apart in the source"}, "[26]": {"target": "T3, recombinant human IL-5", "remark": "listed apart in the source"}}, "note": "Like-named read-outs stand apart in the source and are kept apart here."}
{"binder": "B1", "values": [{"measurement": "IC50, inhibition of IL-5 driven proliferation of TF-1.6G4 cells (Mean, pM)", "setting": "[1]", "value": 13.8, "unit": "pM"}, {"measurement": "IC50, inhibition of IL-5 driven proliferation of TF-1.6G4 cells (Mean, pM)", "setting": "[2]", "value": 43.8, "unit": "pM"}, {"measurement": "Kd", "setting": "[3]", "value": 0.0194, "unit": "nM"}, {"measurement": "koff", "setting": "[3]", "value": "1.58e-05", "unit": "s⁻¹"}, {"measurement": "kon", "setting": "[3]", "value": 816000, "unit": "M⁻¹ s⁻¹"}, {"measurement": "Kd", "setting": "[4]", "value": 0.0217, "unit": "nM"}, {"measurement": "koff", "setting": "[4]", "value": "1.84e-05", "unit": "s⁻¹"}, {"measurement": "kon", "setting": "[4]", "value": 849000, "unit": "M⁻¹ s⁻¹"}]}
{"binder": "B2", "values": [{"measurement": "Kd", "setting": "[5]", "value": 0.133, "unit": "nM"}, {"measurement": "koff", "setting": "[5]", "value": 0.000106, "unit": "s⁻¹"}, {"measurement": "kon", "setting": "[5]", "value": 793000, "unit": "M⁻¹ s⁻¹"}, {"measurement": "Kd", "setting": "[6]", "value": 0.174, "unit": "nM"}, {"measurement": "koff", "setting": "[6]", "value": 0.00014, "unit": "s⁻¹"}, {"measurement": "kon", "setting": "[6]", "value": 807000, "unit": "M⁻¹ s⁻¹"}, {"measurement": "Kd", "setting": "[7]", "value": 0.135, "unit": "nM"}, {"measurement": "koff", "setting": "[7]", "value": 0.000105, "unit": "s⁻¹"}, {"measurement": "kon", "setting": "[7]", "value": 777000, "unit": "M⁻¹ s⁻¹"}, {"measurement": "Kd", "setting": "[8]", "value": 0.138, "unit": "nM"}, {"measurement": "koff", "setting": "[8]", "value": 0.000109, "unit": "s⁻¹"}, {"measurement": "kon", "setting": "[8]", "value": 789000, "unit": "M⁻¹ s⁻¹"}, {"measurement": "Kd", "setting": "[9]", "value": 0.177, "unit": "nM"}, {"measurement": "koff", "setting": "[9]", "value": 0.000137, "unit": "s⁻¹"}, {"measurement": "kon", "setting": "[9]", "value": 772000, "unit": "M⁻¹ s⁻¹"}, {"measurement": "Kd", "setting": "[10]", "value": 0.171, "unit": "nM"}, {"measurement": "koff", "setting": "[10]", "value": 0.000132, "unit": "s⁻¹"}, {"measurement": "kon", "setting": "[10]", "value": 772000, "unit": "M⁻¹ s⁻¹"}, {"measurement": "Kd", "setting": "[11]", "value": 0.148, "unit": "nM"}, {"measurement": "koff", "setting": "[11]", "value": 0.000115, "unit": "s⁻¹"}, {"measurement": "kon", "setting": "[11]", "value": 776000, "unit": "M⁻¹ s⁻¹"}, {"measurement": "Kd", "setting": "[12]", "value": 0.134, "unit": "nM"}, {"measurement": "koff", "setting": "[12]", "value": 0.000103, "unit": "s⁻¹"}, {"measurement": "kon", "setting": "[12]", "value": 773000, "unit": "M⁻¹ s⁻¹"}, {"measurement": "Kd", "setting": "[13]", "value": 0.149, "unit": "nM"}, {"measurement": "koff", "setting": "[13]", "value": 0.000114, "unit": "s⁻¹"}, {"measurement": "kon", "setting": "[13]", "value": 769000, "unit": "M⁻¹ s⁻¹"}, {"measurement": "Kd", "setting": "[14]", "value": 0.153, "unit": "nM"}, {"measurement": "koff", "setting": "[14]", "value": 0.00012, "unit": "s⁻¹"}, {"measurement": "kon", "setting": "[14]", "value": 784000, "unit": "M⁻¹ s⁻¹"}, {"measurement": "Kd", "setting": "[15]", "value": 0.15, "unit": "nM"}, {"measurement": "koff", "setting": "[15]", "value": 0.000117, "unit": "s⁻¹"}, {"measurement": "kon", "setting": "[15]", "value": 779000, "unit": "M⁻¹ s⁻¹"}, {"measurement": "Kd", "setting": "[16]", "value": 0.151, "unit": "nM"}, {"measurement": "koff", "setting": "[16]", "value": 0.000117, "unit": "s⁻¹"}, {"measurement": "kon", "setting": "[16]", "value": 775000, "unit": "M⁻¹ s⁻¹"}]}
{"binder": "B3", "values": [{"measurement": "Kd", "setting": "[17]", "value": 0.151, "unit": "nM"}, {"measurement": "koff", "setting": "[17]", "value": 0.000111, "unit": "s⁻¹"}, {"measurement": "kon", "setting": "[17]", "value": 735000, "unit": "M⁻¹ s⁻¹"}, {"measurement": "Kd", "setting": "[18]", "value": 0.142, "unit": "nM"}, {"measurement": "koff", "setting": "[18]", "value": 0.000105, "unit": "s⁻¹"}, {"measurement": "kon", "setting": "[18]", "value": 737000, "unit": "M⁻¹ s⁻¹"}, {"measurement": "Kd", "setting": "[19]", "value": 0.18, "unit": "nM"}, {"measurement": "koff", "setting": "[19]", "value": 0.000133, "unit": "s⁻¹"}, {"measurement": "kon", "setting": "[19]", "value": 740000, "unit": "M⁻¹ s⁻¹"}, {"measurement": "Kd", "setting": "[20]", "value": 0.115, "unit": "nM"}, {"measurement": "koff", "setting": "[20]", "value": "8.22e-05", "unit": "s⁻¹"}, {"measurement": "kon", "setting": "[20]", "value": 714000, "unit": "M⁻¹ s⁻¹"}, {"measurement": "Kd", "setting": "[21]", "value": 0.139, "unit": "nM"}, {"measurement": "koff", "setting": "[21]", "value": 0.000101, "unit": "s⁻¹"}, {"measurement": "kon", "setting": "[21]", "value": 728000, "unit": "M⁻¹ s⁻¹"}, {"measurement": "Kd", "setting": "[22]", "value": 0.15, "unit": "nM"}, {"measurement": "koff", "setting": "[22]", "value": 0.00011, "unit": "s⁻¹"}, {"measurement": "kon", "setting": "[22]", "value": 732000, "unit": "M⁻¹ s⁻¹"}, {"measurement": "Kd", "setting": "[23]", "value": 0.129, "unit": "nM"}, {"measurement": "koff", "setting": "[23]", "value": "9.36e-05", "unit": "s⁻¹"}, {"measurement": "kon", "setting": "[23]", "value": 727000, "unit": "M⁻¹ s⁻¹"}, {"measurement": "Kd", "setting": "[24]", "value": 0.163, "unit": "nM"}, {"measurement": "koff", "setting": "[24]", "value": 0.000116, "unit": "s⁻¹"}, {"measurement": "kon", "setting": "[24]", "value": 713000, "unit": "M⁻¹ s⁻¹"}, {"measurement": "Kd", "setting": "[25]", "value": 0.143, "unit": "nM"}, {"measurement": "koff", "setting": "[25]", "value": 0.000104, "unit": "s⁻¹"}, {"measurement": "kon", "setting": "[25]", "value": 728000, "unit": "M⁻¹ s⁻¹"}, {"measurement": "Kd", "setting": "[26]", "value": 0.163, "unit": "nM"}, {"measurement": "koff", "setting": "[26]", "value": 0.000116, "unit": "s⁻¹"}, {"measurement": "kon", "setting": "[26]", "value": 713000, "unit": "M⁻¹ s⁻¹"}]}
